Here are results for one protein from PMC12802350, “Opposite effects of spermidine and GC7 in cell culture are dictated by distinct molecular targets” (Biochemical Journal, 2025).

Substrate in this series: NCCCCNCCCN
Put plainly: DCHBS/AAP peroxide-coupled kinetic assay; Km from Michaelis–Menten/inhibition fit. It counts as biochemical, Bos taurus. The conditions noted are these: TPQ (trihydroxyphenylalanine quinone), copper.

B1: bovine serum amine oxidase (BSAO) (Bos taurus) (protein)
chain: REEGGVGSEEGVGKQCHPSLPPRCPSRSPSDQPWTHPDQSQLFADLSREELTTVMSFLTQQLGPDLVDAAQARPSDNCVFSVELQLPPKAAALAHLDRGSPPPAREALAIVFFGGQPQPNVTELVVGPLPQPSYMRDVTVERHGGPLPYYRRPVLLREYLDIDQMIFNRELPQAAGVLHHCCSYKQGGQKLLTMNSAPRGVQSGDRSTWFGIYYNITKGGPYLHPVGLELLVDHKALDPADWTVQKVFFQGRYYENLAQLEEQFEAGQVNVVVIPDDGTGGFWSLKSQVPPGPTPPLQFHPQGPRFSVQGNRVASSLWTFSFGLGAFSGPRVFDVRFQGERLAYEISLQEAGAVYGGNTPAAMLTRYMDSGFGMGYFATPLIRGVDCPYLATYMDWHFVVESQTPKTLHDAFCVFEQNKGLPLRRHHSDFLSHYFGGVAQTVLVFRSVSTMLNYDYVWDMVFYPNGAIEVKLHATGYISSAFLFGAARRYGNQVGEHTLGPVHTHSAHYKVDLDVGGLENWVWAEDMAFVPTAIPWSPEHQIQRLQVTRKQLETEEQAAFPLGGASPRYLYLASKQSNKWGHPRGYRIQTVSFAGGPMPQNSPMERAFSWGRYQLAITQRKETEPSSSSVFNQNDPWTPTVDFSDFINNETIAGKDLVAWVTAGFLHIPHAEDIPNTVTVGNGVGFFLRPYNFFDQEPSMDSADSIYFREGQDAGSCEINPLACLPQAATCAPDLPVFSHGGYPEY
notes: BSAO purified from bovine blood
In general, Km refers to the substrate concentration at which the rate is half of its maximum. On to B1, for which the Michaelis-Menten constant (Km) worked out at 173.8 µM.
